Reference: patent US20050106661A1 (RIKEN, published 2005)

Key:
[1] = biological target: the molecule itself; experiment: formation of multimer (light scattering); self-association
Experimental: The fluorescent protein was equilibrated with 50 mM HEPES (pH 7.5) and 150 mM KCl.

[2] = biological target: the molecule itself; experiment: molecular weight by light scattering (34 kDa)

Protein	binding result [1]	binding result [2]
Azami-Green, fluorescent protein derived from Galaxea fascicularis (other, Expressed in E. coli with a C-terminal His-tag and purified on Ni-agarose; also called wild-type Azami-Green; fluorescent protein of the present invention derived from coral; not shown: C-terminal His-tag from the pET28 vector (NcoI/XhoI cloning)) MSVIKPEMKIKLCMRGTVNGHNFVIEGEGKGNPYEGTQILDLNVTEGAPLPFAYDILTTVFQYGNRAFTKYPADIQDYFKQTFPEGYHWERSMTYEDQGICTATSNISMRGDCFFYDIRFDGVNFPPNGPVMQKKTLKWEPSTEKMYVRDGVLKGDVNMALLLEGGGHYRCDFKTTYKAKKDVRLPDYHFVDHRIEILKHDKDYNKVKLYENAVARYSMLPSQAK	binds	
mAG, monomeric mutant of Azami-Green (V123T, Y188A, F190K) (other, also called modified monomeric fluorescent protein) MSVIKPEMKIKLCMRGTVNGHNFVIEGEGKGNPYEGTQILDLNVTEGAPLPFAYDILTTVFQYGNRAFTKYPADIQDYFKQTFPEGYHWERSMTYEDQGICTATSNISMRGDCFFYDIRFDGTNFPPNGPVMQKKTLKWEPSTEKMYVRDGVLKGDVNMALLLEGGGHYRCDFKTTYKAKKDVRLPDAHKVDHRIEILKHDKDYNKVKLYENAVARYSMLPSQAK		no binding
